Experimental data taken from article PMC7065722 (Biochemistry, 2019).

What follows are compounds tested on O=C(O)C[C@H](O)C(=O)O (assay: crystal structure). Details: [4Fe-4S] cluster active site, same binding mode as wild type.
Type: biochemical, Leishmania major

Compound | Km | Vmax | kcat | kcat/Km
LmFH-2-H334A (Leishmania major; H334A) | 4.6 ± 0.1 mM | 52 µmol/min/mg | 57.6 ± 0.4 s⁻¹ | 12500 ± 400 M⁻¹ s⁻¹
LmFH-2-R421A (Leishmania major; R421A) | 4.1 ± 0.3 mM | 0.13 µmol/min/mg | 0.144 ± 0.002 s⁻¹ | 35 ± 3 M⁻¹ s⁻¹
LmFH-2-R471A (Leishmania major; R471A) | 4.3 ± 0.2 mM | 0.034 µmol/min/mg | 0.038 ± 0.001 s⁻¹ | 9 ± 1 M⁻¹ s⁻¹
LmFH-2-T467A (Leishmania major; T467A) | 4.4 ± 0.2 mM | 0.047 µmol/min/mg | 0.052 ± 0.001 s⁻¹ | 12 ± 1 M⁻¹ s⁻¹

The compounds below were run against T1, LmFH-2 (cytosolic class I fumarate hydratase) (Leishmania major, UniProt E9AE57) (assay: crystal structure at […] Å). Details: not given.
T1 sequence (E9AE57 1-568): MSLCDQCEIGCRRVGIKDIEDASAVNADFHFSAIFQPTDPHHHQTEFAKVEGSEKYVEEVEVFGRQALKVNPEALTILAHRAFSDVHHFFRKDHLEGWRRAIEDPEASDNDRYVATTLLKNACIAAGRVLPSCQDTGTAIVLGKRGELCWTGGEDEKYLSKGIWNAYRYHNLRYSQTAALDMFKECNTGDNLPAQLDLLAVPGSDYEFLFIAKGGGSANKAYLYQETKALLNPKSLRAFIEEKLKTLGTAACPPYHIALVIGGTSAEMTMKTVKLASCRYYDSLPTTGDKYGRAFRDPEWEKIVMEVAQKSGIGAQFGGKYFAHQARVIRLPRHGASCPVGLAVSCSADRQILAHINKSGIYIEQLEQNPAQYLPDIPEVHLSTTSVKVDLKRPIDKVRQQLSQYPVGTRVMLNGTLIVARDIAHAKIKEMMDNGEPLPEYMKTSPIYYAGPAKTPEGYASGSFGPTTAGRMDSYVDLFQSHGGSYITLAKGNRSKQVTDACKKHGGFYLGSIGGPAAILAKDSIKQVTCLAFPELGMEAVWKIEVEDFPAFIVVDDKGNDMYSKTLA
Type: biochemical

IC50 | Compound
34.2 ± 1.2 mM | O=C(O)CCC(=O)O [succinate]

Each compound was assayed against T2, LmFH-2-R173A (Leishmania major, UniProt E9AE57, R173A) (assay: not given). Details: not given.
T2 sequence (E9AE57 1-568 R173A): T1 sequence (E9AE57 1-568)

Compound | Km
O=C(O)/C=C/C(=O)O [fumarate] | 2.6 ± 0.6 mM
